Source: patent publication US20260240958

System: LTRP5-ADD-ZIM3 (dCasX491 fused to DNMT3A ADD/CD, DNMT3L, ZIM3-KRAB) (synthetic construct)
Experiment: cell_activity
Settings: HEK293T day 8; non-targeting control

LTRP5-ADD-ZIM3 (dCasX491 fused to DNMT3A ADD/CD, DNMT3L, ZIM3-KRAB) (synthetic construct), sequence (chain, as listed by the source): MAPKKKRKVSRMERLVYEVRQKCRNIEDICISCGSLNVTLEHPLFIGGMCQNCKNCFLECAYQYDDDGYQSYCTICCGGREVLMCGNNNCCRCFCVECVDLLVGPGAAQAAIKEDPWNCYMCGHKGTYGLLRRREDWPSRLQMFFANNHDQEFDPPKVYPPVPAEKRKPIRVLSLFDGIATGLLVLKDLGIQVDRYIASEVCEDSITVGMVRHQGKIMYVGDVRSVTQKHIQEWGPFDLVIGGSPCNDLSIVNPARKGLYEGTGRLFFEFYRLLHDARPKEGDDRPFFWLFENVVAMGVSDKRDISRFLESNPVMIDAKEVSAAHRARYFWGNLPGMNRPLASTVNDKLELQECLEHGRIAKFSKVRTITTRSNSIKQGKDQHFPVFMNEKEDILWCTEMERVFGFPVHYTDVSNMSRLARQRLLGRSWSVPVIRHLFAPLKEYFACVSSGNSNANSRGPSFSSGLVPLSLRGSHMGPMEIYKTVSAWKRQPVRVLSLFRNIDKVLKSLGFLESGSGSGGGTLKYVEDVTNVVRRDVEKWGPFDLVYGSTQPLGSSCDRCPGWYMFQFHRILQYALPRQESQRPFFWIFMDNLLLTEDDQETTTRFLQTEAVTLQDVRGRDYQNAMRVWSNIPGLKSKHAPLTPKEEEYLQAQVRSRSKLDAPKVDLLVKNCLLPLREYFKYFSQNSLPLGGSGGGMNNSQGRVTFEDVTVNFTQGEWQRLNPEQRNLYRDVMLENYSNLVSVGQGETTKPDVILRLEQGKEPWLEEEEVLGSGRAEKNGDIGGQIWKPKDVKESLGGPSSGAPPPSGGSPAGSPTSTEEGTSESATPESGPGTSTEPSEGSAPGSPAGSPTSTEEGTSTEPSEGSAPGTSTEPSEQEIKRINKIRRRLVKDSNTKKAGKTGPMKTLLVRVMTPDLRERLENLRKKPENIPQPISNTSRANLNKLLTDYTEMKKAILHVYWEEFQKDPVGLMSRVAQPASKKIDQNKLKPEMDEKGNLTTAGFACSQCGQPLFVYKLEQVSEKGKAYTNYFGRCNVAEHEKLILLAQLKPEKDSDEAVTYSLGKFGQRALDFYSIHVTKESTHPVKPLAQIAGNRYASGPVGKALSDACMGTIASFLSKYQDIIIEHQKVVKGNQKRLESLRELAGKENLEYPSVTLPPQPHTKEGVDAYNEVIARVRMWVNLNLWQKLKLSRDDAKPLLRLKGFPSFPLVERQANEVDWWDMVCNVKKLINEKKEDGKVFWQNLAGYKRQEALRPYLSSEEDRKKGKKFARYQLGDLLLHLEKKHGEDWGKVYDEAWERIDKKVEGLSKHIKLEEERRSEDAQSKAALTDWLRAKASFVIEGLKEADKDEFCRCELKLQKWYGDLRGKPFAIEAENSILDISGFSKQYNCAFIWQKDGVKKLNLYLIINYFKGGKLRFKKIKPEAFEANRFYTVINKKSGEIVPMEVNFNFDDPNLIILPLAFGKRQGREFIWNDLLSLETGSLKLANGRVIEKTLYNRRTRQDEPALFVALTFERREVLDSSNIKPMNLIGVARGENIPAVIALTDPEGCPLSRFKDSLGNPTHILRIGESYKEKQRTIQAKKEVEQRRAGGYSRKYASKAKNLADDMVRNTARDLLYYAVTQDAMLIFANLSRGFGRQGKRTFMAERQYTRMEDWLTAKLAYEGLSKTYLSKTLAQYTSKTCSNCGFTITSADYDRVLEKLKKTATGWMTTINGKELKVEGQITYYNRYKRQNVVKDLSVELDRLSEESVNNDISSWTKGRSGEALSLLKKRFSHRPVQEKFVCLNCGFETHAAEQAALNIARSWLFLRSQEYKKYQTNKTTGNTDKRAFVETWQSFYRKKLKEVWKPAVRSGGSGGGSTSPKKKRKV

non-targeting spacer gRNA ; human B2M locus
activity (% HLA-negative cells): 8.44
